Data on five substances can be found in patent US20160243213A9.

Experiment [1] addresses HPV-16 E7 wild type (E7WT) expressed by RMA-E7 transfectants (HPV-16) (UniProt P03129).
Experiment [2] shares this target. This is another data set of the same source.

In the case of “in vitro restimulated spleen cells of C57BL/6 mice inoculated with the empty plasmid pTHamp (cells without a defined receptor)”, in experiment [1], the 51Cr-release assay (after 1st in vitro restimulation), Specific Lysis (%) was found to be 8%.
On to “in vitro restimulated spleen cells of C57BL/6 mice inoculated with the DNA vaccine pTHamp-E7SH (cells without a defined receptor)”, for which the 51Cr-release assay (after 1st in vitro restimulation), specific lysis in experiment [2] came to 26%.
“in vitro restimulated spleen cells of C57BL/6 mice inoculated with RPBLAs containing RX3-E7SH (cells without a defined receptor)”: in experiment [1], the 51Cr-release assay (after 1st in vitro restimulation), Specific Lysis (%) was found to be 33%.
Still for that read-out and setting: the result for “in vitro restimulated spleen cells of C57BL/6 mice inoculated with RPBLAs containing RX3-E7SH and incomplete Freund's adjuvant (cells without a defined receptor)” reads 29%.
With “in vitro restimulated spleen cells of C57BL/6 mice inoculated with RPBLAs containing RX3-Gfp (cells without a defined receptor)”, the 51Cr-release assay (after 1st in vitro restimulation), specific lysis in experiment [2] came out at 12%.
